Patent US20230063116A1 (Regeneron, published 2023)
Like-named read-outs stand apart in the source and are kept apart here.

Assays:
[1] = target: T1, human VEGF165 (REGN110) (human, UniProt P15692 207-395); assay: SPR, Biacore, 25 C; trap captured on anti-VEGFR1 mAb surface, hVEGF165 injected; 1:1 fit
T1 construct: also called hVEGF165; hVEGF165(M1-R191)
Method: (§1) Experimental Procedure. Equilibrium dissociation constants (KD values) for human VEGF₁₆₅ binding to various purified VEGF mini-trap constructs were determined using a real-time surface plasmon resonance biosensor using a Biacore 3000 instrument. All binding studies were performed in 10 mM HEPES, 150 mM NaCl, 3 mM EDTA, and 0.05% v/v Surfactant Tween-20, pH 7.4 (HBS-ET) running buffer at 25° C. The Biacore sensor surface was first derivatized by amine coupling with a monoclonal mouse anti-VEGFR1 antibody to capture VEGF mini-trap constructs. Binding studies were performed on the human VEGF reagent, human VEGF₁₆₅ (human VEGF₁₆₅; SEQ ID NO: 31). Different concentrations of VEGF₁₆₅ reagent, prepared in HBS-ET running buffer (2 nM — 62.5 pM; 2-fold serial dilution for human VEGF₁₆₅), were injected over an anti-VEGFR1-captured VEGF mini-trap construct surface for 1.8 minutes at a flow rate of 90 μL/minute, while the dissociation of VEGF mini-trap constructs bound VEGF₁₆₅ reagent was monitored for 60 minutes in HBS-ET running buffer. Kinetic association (kₐ) and dissociation (kd) rate constants were determined by fitting the real-time sensorgrams to a 1:1 binding model using Scrubber 2.0c curve fitting software. Binding dissociation equilibrium constants (KD) and dissociative half-lives (t½) were calculated from the kinetic rate constants as: […]

[2] = target: T1, human VEGF165 (REGN110); assay: SPR, Biacore 3000, 25 C; trap captured on anti-VEGFR1 mAb surface, hVEGF165 injected; 1:1 fit
[3] = target: T1, human VEGF165 (REGN110); assay: cell-based or functional assay
Target sequence in this assay (P15692 other isoform, or with tags, fused parts or gaps): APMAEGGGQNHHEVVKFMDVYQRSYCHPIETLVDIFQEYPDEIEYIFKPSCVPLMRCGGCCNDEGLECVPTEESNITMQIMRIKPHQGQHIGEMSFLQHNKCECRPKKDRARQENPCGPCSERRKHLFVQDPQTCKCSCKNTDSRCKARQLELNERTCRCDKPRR

[4] = target: T2, VEGF110 (hVEGF110, aa 207-318) (human, UniProt P15692 207-318); assay: cell-based or functional assay
T2 sequence (looked up): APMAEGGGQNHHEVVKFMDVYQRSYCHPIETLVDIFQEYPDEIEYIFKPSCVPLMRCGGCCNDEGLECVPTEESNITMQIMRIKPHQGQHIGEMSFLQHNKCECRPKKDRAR

[5] = target: T3, VEGF121 (hVEGF121, aa 207-327) (human, UniProt P15692 207-327); assay: cell-based or functional assay
T3 chain: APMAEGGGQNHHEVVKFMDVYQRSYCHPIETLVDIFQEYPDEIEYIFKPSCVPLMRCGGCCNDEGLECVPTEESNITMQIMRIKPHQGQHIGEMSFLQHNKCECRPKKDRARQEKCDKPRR

[6] = target: T1, human VEGF165 (REGN110); assay: SPR, Biacore, 25 C; trap captured on anti-VEGFR1 mAb surface, hVEGF165 injected
Method: as §1

[7] = target: T3, VEGF121 (hVEGF121, aa 207-327); assay: cell-based or functional assay
[8] = target: T2, VEGF110 (hVEGF110, aa 207-318); assay: cell-based or functional assay; remark: listed apart in the source
[9] = target: T1, human VEGF165 (REGN110); assay: SPR, Biacore 3000, 25 C; trap captured on anti-VEGFR1 mAb surface, hVEGF165 injected

B1: REGN7483^R (homodimer mini-trap, recombinant) (receptor)
chain: SDTGRPFVEMYSEIPEIIHMTEGRELVIPCRVTSPNITVTLKKFPLDTLIPDGKRIIWDSRKGFIISNATYKEIGLLTCEATVNGHLYKTNYLTHRQTNTIIDVVLSPSHGIELSVGEKLVLNCTARTELNVGIDFNWEYPSSKHQHKKLVNRDLKTQSGSEMKKFLSTLTIDGVTRSDQGLYTCAASSGLMTKKNSTFVRVHEKDKTHTCPPCPAPELLG
modifications: N-linked glycans at N36, N68, N123, N196 (Table C)
notes: also called Recombinant dimer mini-trap
Kd [1]: 1.59 pM | koff [1]: ≥ 1e-05 s⁻¹ | kon [1]: 6.3e+06 M⁻¹ s⁻¹ | t1/2 (dissociative half-life) [1]: ≥ 19.2 h | Kd [2]: ≤ 1.58 pM | koff [2]: ≤ 1e-05 s⁻¹ | kon [2]: 6.3e+06 M⁻¹ s⁻¹ | t½ (dissociative half-life) [2]: ≥ 19.2 h | IC50 (M), inhibition of VEGFR1 signaling (luciferase), 20 pM VEGF165 [3]: 1.92e-11 M | IC50 (M), inhibition of VEGFR1 signaling (luciferase), 20 pM VEGF110 [4]: 1.3e-11 M

B2: REGN7850 (VEGF mini-trap-hFc …) (receptor)
chain: SDTGRPFVEMYSEIPEIIHMTEGRELVIPCRVTSPNITVTLKKFPLDTLIPDGKRIIWDSRKGFIISNATYKEIGLLTCEATVNGHLYKTNYLTHRQTNTIIDVVLSPSHGIELSVGEKLVLNCTARTELNVGIDFNWEYPSSKHQHKKLVNRDLKTQSGSEMKKFLSTLTIDGVTRSDQGLYTCAASSGLMTKKNSTFVRVHEKDKTHTCPPCPPC
notes: Recombinant homodimer; also called REGN7850 (CPPCPPC)
Kd [1]: 1.55 pM | koff [1]: ≥ 1e-05 s⁻¹ | kon [1]: 6.46e+06 M⁻¹ s⁻¹ | t1/2 (dissociative half-life) [1]: ≥ 19.2 h | IC50 (M), inhibition of VEGFR1 signaling (luciferase), 20 pM VEGF165 [3]: 2.99e-11 M | IC50 (M), inhibition of VEGFR1 signaling (luciferase), 20 pM VEGF121 [5]: 1.66e-11 M | IC50 (M), inhibition of VEGFR1 signaling (luciferase), 20 pM VEGF110 [4]: 1.22e-11 M | 2nM hVEGF165 Bound [6]: 56 RU

B3: REGN7851 (VEGF mini-trap-hFc …) (receptor)
chain: SDTGRPFVEMYSEIPEIIHMTEGRELVIPCRVTSPNITVTLKKFPLDTLIPDGKRIIWDSRKGFIISNATYKEIGLLTCEATVNGHLYKTNYLTHRQTNTIIDVVLSPSHGIELSVGEKLVLNCTARTELNVGIDFNWEYPSSKHQHKKLVNRDLKTQSGSEMKKFLSTLTIDGVTRSDQGLYTCAASSGLMTKKNSTFVRVHEKDKTHTCPPCPPCPPC
notes: Recombinant homodimer; also called REGN7851 (CPPCPPCPPC)
Kd [1]: 1.81 pM | koff [1]: ≥ 1e-05 s⁻¹ | kon [1]: 5.51e+06 M⁻¹ s⁻¹ | t1/2 (dissociative half-life) [1]: ≥ 19.2 h | IC50 (M), inhibition of VEGFR1 signaling (luciferase), 20 pM VEGF165 [3]: 2.68e-11 M | IC50 (M), inhibition of VEGFR1 signaling (luciferase), 20 pM VEGF121 [5]: 1.83e-11 M | IC50 (M), inhibition of VEGFR1 signaling (luciferase), 20 pM VEGF110 [4]: 1.45e-11 M | 2nM hVEGF165 Bound [6]: 51 RU

B4: REGN7080 (VEGF minitrap-G4Sx6-VEGF minitrap mmH) (receptor)
chain: SDTGRPFVEMYSEIPEIIHMTEGRELVIPCRVTSPNITVTLKKFPLDTLIPDGKRIIWDSRKGFIISNATYKEIGLLTCEATVNGHLYKTNYLTHRQTNTIIDVVLSPSHGIELSVGEKLVLNCTARTELNVGIDFNWEYPSSKHQHKKLVNRDLKTQSGSEMKKFLSTLTIDGVTRSDQGLYTCAASSGLMTKKNSTFVRVHEKGGGGSGGGGSGGGGSGGGGSGGGGSGGGGSSDTGRPFVEMYSEIPEIIHMTEGRELVIPCRVTSPNITVTLKKFPLDTLIPDGKRIIWDSRKGFIISNATYKEIGLLTCEATVNGHLYKTNYLTHRQTNTIIDVVLSPSHGIELSVGEKLVLNCTARTELNVGIDFNWEYPSSKHQHKKLVNRDLKTQSGSEMKKFLSTLTIDGVTRSDQGLYTCAASSGLMTKKNSTFVRVHEKEQKLISEEDLGGEQKLISEEDLHHHHHH
notes: Monomeric single chain; also called REGN7080 (G4Sx6 linker); single chain mini-trap with (G4S)6 linker and C-terminal mmH tag
IC50 (M), inhibition of VEGFR1 signaling (luciferase), 20 pM VEGF121 [7]: 1.66e-10 M | IC50 (M), inhibition of VEGFR1 signaling (luciferase), 20 pM VEGF110 [8]: 1.61e-10 M | Kd [1]: 71.5 pM | koff [1]: 0.000387 s⁻¹ | kon [1]: 5.41e+06 M⁻¹ s⁻¹ | t1/2 (dissociative half-life) [1]: 0.497 h | 100 nM hVEGF165 Bound [9]: 36 RU | Kd [2]: 71.5 pM | koff [2]: 0.000387 s⁻¹ | kon [2]: 5.41e+06 M⁻¹ s⁻¹ | t½ (dissociative half-life) [2]: 0.497 h | 2nM hVEGF165 Bound [6]: 36 RU
